Each block holds one binder with its values, some of them ahead of it.
Columns and labels:
[1] = biological target: M44-modified L NTAA target peptides (M44-L-P2-peptide); experiment: Gini coefficient of P2 tolerance from multiplex encoding heatmap
[2] = biological target: M44-modified N NTAA target peptides; experiment: encoding assay; P2 F
[3] = biological target: M44-modified F NTAA target peptides (M44-F-P2-peptide); experiment: encoding assay; P2 F;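 also: fraction of recording tags encoded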
[4] = biological target: M44-modified A NTAA target peptides (M44-A-P2-peptide); experiment: encoding assay; P2 F
[5] = biological target: M44-modified M NTAA target peptides; experiment: encoding assay; P2 F
[6] = biological target: M44-modified G NTAA target peptides (M44-G-P2-peptide); experiment: encoding assay; P2 F;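 also: fraction of recording tags encoded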
[7] = biological target: M44-modified T NTAA target peptides; experiment: encoding assay; P2 F
[8] = biological target: M44-modified D NTAA target peptides; experiment: encoding assay; P2 F;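 also: fraction of recording tags encoded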
[9] = biological target: M44-modified W NTAA target peptides; experiment: encoding assay; P2 F;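 also: fraction of recording tags encoded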
[10] = biological target: M44-modified L NTAA target peptides (M44-L-P2-peptide); experiment: encoding assay; P2 F;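 also: fraction of recording tags encoded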
[11] = biological target: M44-modified E NTAA target peptides; experiment: encoding assay; P2 F;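 also: fraction of recording tags encoded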
[12] = biological target: M44-modified Y NTAA target peptides (M44-Y-P2-peptide); experiment: encoding assay; P2 F;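 also: fraction of recording tags encoded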
[13] = biological target: M44-modified Q NTAA target peptides; experiment: encoding assay; P2 F
[14] = biological target: M44-modified N NTAA target peptides; experiment: encoding assay; P2 V
[15] = biological target: M44-modified S NTAA target peptides; experiment: encoding assay; P2 V
[16] = biological target: M44-modified P NTAA target peptides; experiment: encoding assay; P2 V;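 also: fraction of recording tags encoded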
[17] = biological target: M44-modified H NTAA target peptides; experiment: encoding assay; P2 V
[18] = biological target: M44-modified F NTAA target peptides (M44-F-P2-peptide); experiment: encoding assay; P2 V;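 also: fraction of recording tags encoded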
[19] = biological target: M44-modified I NTAA target peptides (M44-I-P2-peptide); experiment: encoding assay; P2 V
[20] = biological target: M44-modified A NTAA target peptides (M44-A-P2-peptide); experiment: encoding assay; P2 V
[21] = biological target: M44-modified M NTAA target peptides; experiment: encoding assay; P2 V
[22] = biological target: M44-modified T NTAA target peptides; experiment: encoding assay; P2 V
[23] = biological target: M44-modified D NTAA target peptides; experiment: encoding assay; P2 V;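 also: fraction of recording tags encoded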
[24] = biological target: M44-modified W NTAA target peptides; experiment: encoding assay; P2 V;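 also: fraction of recording tags encoded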
[25] = biological target: M44-modified L NTAA target peptides (M44-L-P2-peptide); experiment: encoding assay; P2 V;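 also: fraction of recording tags encoded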
[26] = biological target: M44-modified Y NTAA target peptides (M44-Y-P2-peptide); experiment: encoding assay; P2 V;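 also: fraction of recording tags encoded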
[27] = biological target: M44-modified Q NTAA target peptides; experiment: encoding assay; P2 V
[28] = biological target: M44-modified S NTAA target peptides; experiment: encoding assay; P2 T
[29] = biological target: M44-modified H NTAA target peptides; experiment: encoding assay; P2 T;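 also: fraction of recording tags encoded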
[30] = biological target: M44-modified D NTAA target peptides; experiment: encoding assay; P2 T;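 also: fraction of recording tags encoded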
[31] = biological target: M44-modified W NTAA target peptides; experiment: encoding assay; P2 T;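 also: fraction of recording tags encoded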
[32] = biological target: M17-modified Y NTAA target peptides (M17-Y-P2-peptide); experiment: Gini coefficient of P2 tolerance from multiplex encoding heatmap
[33] = biological target: M17-modified E NTAA target peptides; experiment: encoding assay; P2 T;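 also: fraction of recording tags encoded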
[34] = biological target: M17-modified F NTAA target peptides; experiment: encoding assay; P2 T;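 also: fraction of recording tags encoded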
[35] = biological target: M17-modified W NTAA target peptides; experiment: encoding assay; P2 T;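 also: fraction of recording tags encoded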
[36] = biological target: M17-modified A NTAA target peptides; experiment: encoding assay; P2 T;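 also: fraction of recording tags encoded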
[37] = biological target: M17-modified D NTAA target peptides; experiment: encoding assay; P2 T;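 also: fraction of recording tags encoded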
[38] = biological target: M17-modified L NTAA target peptides; experiment: encoding assay; P2 T;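 also: fraction of recording tags encoded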
[39] = biological target: M17-modified N NTAA target peptides; experiment: encoding assay; P2 T;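 also: fraction of recording tags encoded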
[40] = biological target: M17-modified Y NTAA target peptides (M17-Y-P2-peptide); experiment: encoding assay; P2 T;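 also: fraction of recording tags encoded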
[41] = biological target: M17-modified T NTAA target peptides; experiment: encoding assay; P2 T;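 also: fraction of recording tags encoded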
[42] = biological target: M17-modified Q NTAA target peptides; experiment: encoding assay; P2 T;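 also: fraction of recording tags encoded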
[43] = biological target: M17-modified G NTAA target peptides; experiment: encoding assay; P2 T;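 also: fraction of recording tags encoded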
[44] = biological target: M17-modified S NTAA target peptides; experiment: encoding assay; P2 T;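 also: fraction of recording tags encoded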
[45] = biological target: M17-modified M NTAA target peptides; experiment: encoding assay; P2 T;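 also: fraction of recording tags encoded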
[46] = biological target: M17-modified H NTAA target peptides; experiment: encoding assay; P2 T;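 also: fraction of recording tags encoded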
[47] = biological target: M17-modified V NTAA target peptides; experiment: encoding assay; P2 T;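 also: fraction of recording tags encoded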
[48] = biological target: M17-modified P NTAA target peptides; experiment: encoding assay; P2 T;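 also: fraction of recording tags encoded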
[49] = biological target: M17-modified I NTAA target peptides; experiment: encoding assay; P2 T;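 also: fraction of recording tags encoded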
[50] = biological target: M17-modified T NTAA target peptides; experiment: encoding assay; P2 W;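 also: fraction of recording tags encoded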
[51] = biological target: M17-modified G NTAA target peptides; experiment: encoding assay; P2 W;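 also: fraction of recording tags encoded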
[52] = biological target: M17-modified I NTAA target peptides; experiment: encoding assay; P2 W;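 also: fraction of recording tags encoded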

B2: engineered M44-A binder (SEQ ID NO: 42) (designed binder, not shown: small tags and cut ends; large carriers)
chain: QVSVQPNFQQDKFLGRWFVAGLASNSSWDREKVAALSGAKMVVAPATDGGLNVTRTMLRKNQCETYTGLLQPAGSLGSYSWRSPHPGSTGSESVVETDYDQYALVYGQGSKGPGEDLRAAALWSRTQTPRAELKEKFTAFSKAQGFTEDTIVFLPQTDKCMTEQ
encoding yield [2]: 0.03
encoding yield [3]: 0.03
encoding yield [4]: 0.31
encoding yield [5]: 0.09
encoding yield [6]: 0.1
encoding yield [7]: 0.25
encoding yield [8]: 0.03
encoding yield [9]: 0.03
encoding yield [10]: 0.05
encoding yield [11]: 0.04
encoding yield [12]: 0.05
encoding yield [13]: 0.03
encoding yield [14]: 0.04
encoding yield [15]: 0.05
encoding yield [16]: 0.04
encoding yield [17]: 0.05
encoding yield [18]: 0.09
encoding yield [19]: 0.05
encoding yield [20]: 0.17
encoding yield [21]: 0.04
encoding yield [22]: 0.12
encoding yield [23]: 0.03
encoding yield [24]: 0.06
encoding yield [25]: 0.04
encoding yield [26]: 0.06
encoding yield [27]: 0.04
encoding yield [28]: 0.01
encoding yield [29]: 0.01
encoding yield [30]: 0.02
encoding yield [31]: 0.01

B3: engineered M44-L binder (SEQ ID NO: 21) (designed binder, not shown: small tags and cut ends; large carriers)
chain: QVSVQPNFQQDKFLGRWFYAGHASNSSWYREKVAALSMAKLVVAPATDGGLNATETFLRKNQCETITSLLQPAGSLGSYSSRSPHGGSTWSTSVVETDYDQYALLYLQGSKGPGEDFRGAILASRTQTPRAELKEKFTAFSKAQGFTEDTIVFLPQTDKCMTEQ
P2 score [1]: 0.408
encoding yield [2]: 0.01
encoding yield [3]: 0.01
encoding yield [4]: 0.01
encoding yield [5]: 0.05
encoding yield [6]: 0.02
encoding yield [7]: 0.02
encoding yield [8]: 0.01
encoding yield [9]: 0.02
encoding yield [10]: 0.06
encoding yield [11]: 0.01
encoding yield [12]: 0.02
encoding yield [13]: 0.01
encoding yield [14]: 0.01
encoding yield [15]: 0.01
encoding yield [16]: 0.01
encoding yield [17]: 0.01
encoding yield [18]: 0.04
encoding yield [19]: 0.09
encoding yield [20]: 0.01
encoding yield [21]: 0.08
encoding yield [22]: 0.01
encoding yield [23]: 0.01
encoding yield [24]: 0.02
encoding yield [25]: 0.09
encoding yield [26]: 0.02
encoding yield [27]: 0.01

B4: engineered M17-Y binder (SEQ ID NO: 61) (designed binder, not shown: small tags and cut ends; large carriers)
chain: TVPDRSEIAGKWYVVALASNTEFYLREKDWVKSAMARISFLGEDELKVSSAVPSPNGCYKVERTWKKTSDDGEVYNSRAAKLKVEVLDTDYKSYAVIYATRVKDGRTDHQMILYSRSPEVSPAATAIFRKLAGERNYTDEMVAMLPRQEECTVDEV
P2 score [32]: 0.225
encoding yield [33]: 0.01
encoding yield [34]: 0.06
encoding yield [35]: 0.01
encoding yield [36]: 0.03
encoding yield [37]: 0.01
encoding yield [38]: 0.04
encoding yield [39]: 0.02
encoding yield [40]: 0.14
encoding yield [41]: 0.02
encoding yield [42]: 0.03
encoding yield [43]: 0.04
encoding yield [44]: 0.01
encoding yield [45]: 0.01
encoding yield [46]: 0.01
encoding yield [47]: 0.03
encoding yield [48]: 0.01
encoding yield [49]: 0.06
encoding yield [50]: 0.01
encoding yield [51]: 0.01
encoding yield [52]: 0.11

The next lines start with results.

encoding yield [2]: 0.05
encoding yield [3]: 0.09
encoding yield [4]: 0.05
encoding yield [5]: 0.1
encoding yield [6]: 0.04
encoding yield [7]: 0.04
encoding yield [8]: 0.03
encoding yield [9]: 0.09
encoding yield [10]: 0.13
encoding yield [11]: 0.03
encoding yield [12]: 0.12
encoding yield [13]: 0.02
encoding yield [14]: 0.05
encoding yield [15]: 0.04
encoding yield [16]: 0.02
encoding yield [17]: 0.04
encoding yield [18]: 0.19
encoding yield [19]: 0.09
encoding yield [20]: 0.04
encoding yield [21]: 0.05
encoding yield [22]: 0.03
encoding yield [23]: 0.03
encoding yield [24]: 0.1
encoding yield [25]: 0.18
encoding yield [26]: 0.07
encoding yield [27]: 0.02
encoding yield [28]: 0.01
encoding yield [29]: 0.02
encoding yield [30]: 0.01
encoding yield [31]: 0.01
B1: engineered M44-L binder (SEQ ID NO: 31) (designed binder, not shown: small tags and cut ends; large carriers)
chain: QDSTQNLIPAPPLISVPLQPGFWTERFQGRWFLVGFAGNAVQKERQSRLTMQSLILELQEDNSYNITAINVRGQGCRYIISTLVPSSRPGQFTLGNIHSYPQIQSLDVQVADTDYDQFAMVFLQGTSENKQYFEVALAGRTKGLSDELKERFVSFAKSLGLKDNNIVFSVPTDQCIDN
P2 score [1]: 0.331

encoding yield [33]: 0.02
encoding yield [34]: 0.08
encoding yield [35]: 0.02
encoding yield [36]: 0.02
encoding yield [37]: 0.02
encoding yield [38]: 0.08
encoding yield [39]: 0.02
encoding yield [40]: 0.24
encoding yield [41]: 0.04
encoding yield [42]: 0.02
encoding yield [43]: 0.05
encoding yield [44]: 0.01
encoding yield [45]: 0.02
encoding yield [46]: 0.02
encoding yield [47]: 0.05
encoding yield [48]: 0.01
encoding yield [49]: 0.1
encoding yield [50]: 0.03
encoding yield [51]: 0.02
encoding yield [52]: 0.14
B5: upgraded binder after additional maturation round (SEQ ID NO: 62) (designed binder, not shown: small tags and cut ends; large carriers)
chain: TVPDRSEIAGKWYVVALASNTEFYLRGKDRVKSAMVRISFQGEDELKVSSAVPSPNGCYKVERTWKKTSDDGEVYNSRAAKLKVEVLDTDYKSYAVIYATRVKDRRTDHQMILYSRSPDVSPAATAIFRKLAGERNYTDEMVAMLPRQEECTVDEV
P2 score [32]: 0.128

From patent publication US20230220589A1
